Measured values as given in US6444641.

Target: serum albumin (UniProt P08835)
Assay: cell-based or functional assay

Sequence of UniProt P08835 (P08835 25-607 limits assumed): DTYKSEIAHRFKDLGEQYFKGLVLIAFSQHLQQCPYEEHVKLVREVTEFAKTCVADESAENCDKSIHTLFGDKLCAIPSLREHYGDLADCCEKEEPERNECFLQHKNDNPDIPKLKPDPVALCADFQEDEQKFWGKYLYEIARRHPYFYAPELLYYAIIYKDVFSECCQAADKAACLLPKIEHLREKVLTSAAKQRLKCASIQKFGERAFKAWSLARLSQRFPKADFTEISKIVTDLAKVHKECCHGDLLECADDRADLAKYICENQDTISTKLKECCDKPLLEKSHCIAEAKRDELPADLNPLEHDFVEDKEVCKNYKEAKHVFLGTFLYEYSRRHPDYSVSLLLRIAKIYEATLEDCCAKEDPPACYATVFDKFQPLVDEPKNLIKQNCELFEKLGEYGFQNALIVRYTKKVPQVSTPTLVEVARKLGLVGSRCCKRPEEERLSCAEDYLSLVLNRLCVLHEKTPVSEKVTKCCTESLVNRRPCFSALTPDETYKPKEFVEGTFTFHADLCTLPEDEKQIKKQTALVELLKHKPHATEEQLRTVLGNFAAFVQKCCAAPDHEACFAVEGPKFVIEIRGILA

plasma drug levels at 100 minutes after subcutaneous injection (6 nmol/kg) in pigs, by double antibody radioimmunoassay: 18 fold
Substance: B29-N^ε-myristoyl human insulin (from UniProt P01308 90-110; P01308 25-54) (ligand)
